In patent publication US20230038720A1:

Molecular target: TACE
Experiment: cell-based or functional assay

TACE IC50 [µg/mL]	Binder
0.858	cyclo(GVCICRRRVCICGR) (disulfide (positions not given here); not fully specified (bridges)) [Peptide 1]
0.546	cyclo(GVCICRRGVCICRR) (disulfide (positions not given here); not fully specified (bridges)) [Peptide 4]
1.15	cyclo(GVCLCRRGVCLCRR) (disulfide (positions not given here); not fully specified (bridges)) [Peptide 3]
2.61	cyclo(GVCSCRRRFCLCRR) (disulfide (positions not given here); not fully specified (bridges)) [Peptide 8]
2.74	cyclo(GVCACRRRFCACRR) (disulfide (positions not given here); not fully specified (bridges)) [Peptide 10]
1.83	cyclo(GVCACARRFCACRR) (disulfide (positions not given here); not fully specified (bridges)) [Peptide 5]
2.2	cyclo(GVCICRRRFCLCRR) (disulfide (positions not given here); not fully specified (bridges)) [Peptide 2]
3.19	cyclo(GVCSCRRRFCICRR) (disulfide (positions not given here); not fully specified (bridges)) [Peptide 6]
1.87	cyclo(GVCICRRRFCSCRR) (disulfide (positions not given here); not fully specified (bridges)) [Peptide 7]
0.515	cyclo(GACICRRRFCLCRR) (disulfide (positions not given here); not fully specified (bridges)) [Peptide 9]
